First the molecules themselves.
B1: S298A/E333A/K334A alemtuzumab (antibody)
heavy: not shown
B2: F241E/F243Y/V262T/V264R/I332E alemtuzumab (antibody)
heavy: DKTHTCPPCPAPELLGGPSVELYPPKPKDTLMISRTPEVTCTVRDVSHEDPEVKFNWYVDGVEVHNAKTKPREEQYNSTYRVVSVLTVLHQDWLNGKEYKCKVSNKALPAPEEKTISKAKGQPREPQVYTLPPSRDELTKNQVSLTCLVKGFYPSDIAVEWESNGQPENNYKTTPPVLDSDGSFFLYSKLTVDKSRWQQGNVFSCSVMHEALHNHYTQKSLSLSPGK
B3: S239D/A330Y/I332E/L235D trastuzumab (antibody)
heavy: DKTHTCPPCPAPELDGGPDVFLFPPKPKDTLMISRTPEVTCVVVDVSHEDPEVKFNWYVDGVEVHNAKTKPREEQYNSTYRVVSVLTVLHQDWLNGKEYKCKVSNKALPYPEEKTISKAKGQPREPQVYTLPPSRDELTKNQVSLTCLVKGFYPSDIAVEWESNGQPENNYKTTPPVLDSDGSFFLYSKLTVDKSRWQQGNVFSCSVMHEALHNHYTQKSLSLSPGK
B4: P230A/E233D/I332E trastuzumab (antibody)
heavy: DKTHTCPPCAAPDLLGGPSVFLFPPKPKDTLMISRTPEVTCVVVDVSHEDPEVKFNWYVDGVEVHNAKTKPREEQYNSTYRVVSVLTVLHQDWLNGKEYKCKVSNKALPAPEEKTISKAKGQPREPQVYTLPPSRDELTKNQVSLTCLVKGFYPSDIAVEWESNGQPENNYKTTPPVLDSDGSFFLYSKLTVDKSRWQQGNVFSCSVMHEALHNHYTQKSLSLSPGK
B5: S239D/A330Y/I332E/L234I trastuzumab (antibody)
heavy: DKTHTCPPCPAPEILGGPDVFLFPPKPKDTLMISRTPEVTCVVVDVSHEDPEVKFNWYVDGVEVHNAKTKPREEQYNSTYRVVSVLTVLHQDWLNGKEYKCKVSNKALPYPEEKTISKAKGQPREPQVYTLPPSRDELTKNQVSLTCLVKGFYPSDIAVEWESNGQPENNYKTTPPVLDSDGSFFLYSKLTVDKSRWQQGNVFSCSVMHEALHNHYTQKSLSLSPGK
B6: F241W/F243W/V262A/V264A alemtuzumab (antibody)
heavy: DKTHTCPPCPAPELLGGPSVWLWPPKPKDTLMISRTPEVTCAVADVSHEDPEVKFNWYVDGVEVHNAKTKPREEQYNSTYRVVSVLTVLHQDWLNGKEYKCKVSNKALPAPIEKTISKAKGQPREPQVYTLPPSRDELTKNQVSLTCLVKGFYPSDIAVEWESNGQPENNYKTTPPVLDSDGSFFLYSKLTVDKSRWQQGNVFSCSVMHEALHNHYTQKSLSLSPGK
B7: F243L/V262I/V264W alemtuzumab (antibody)
heavy: DKTHTCPPCPAPELLGGPSVFLLPPKPKDTLMISRTPEVTCIVWDVSHEDPEVKFNWYVDGVEVHNAKTKPREEQYNSTYRVVSVLTVLHQDWLNGKEYKCKVSNKALPAPIEKTISKAKGQPREPQVYTLPPSRDELTKNQVSLTCLVKGFYPSDIAVEWESNGQPENNYKTTPPVLDSDGSFFLYSKLTVDKSRWQQGNVFSCSVMHEALHNHYTQKSLSLSPGK
B8: S239D/A330Y/I332E/V240I trastuzumab (antibody)
heavy: DKTHTCPPCPAPELLGGPDIFLFPPKPKDTLMISRTPEVTCVVVDVSHEDPEVKFNWYVDGVEVHNAKTKPREEQYNSTYRVVSVLTVLHQDWLNGKEYKCKVSNKALPYPEEKTISKAKGQPREPQVYTLPPSRDELTKNQVSLTCLVKGFYPSDIAVEWESNGQPENNYKTTPPVLDSDGSFFLYSKLTVDKSRWQQGNVFSCSVMHEALHNHYTQKSLSLSPGK
B9: S239D/A330Y/I332E/V264T trastuzumab (antibody)
heavy: DKTHTCPPCPAPELLGGPDVFLFPPKPKDTLMISRTPEVTCVVTDVSHEDPEVKFNWYVDGVEVHNAKTKPREEQYNSTYRVVSVLTVLHQDWLNGKEYKCKVSNKALPYPEEKTISKAKGQPREPQVYTLPPSRDELTKNQVSLTCLVKGFYPSDIAVEWESNGQPENNYKTTPPVLDSDGSFFLYSKLTVDKSRWQQGNVFSCSVMHEALHNHYTQKSLSLSPGK
B10: S239D/A330Y/I332E/K326E trastuzumab (antibody)
heavy: DKTHTCPPCPAPELLGGPDVFLFPPKPKDTLMISRTPEVTCVVVDVSHEDPEVKFNWYVDGVEVHNAKTKPREEQYNSTYRVVSVLTVLHQDWLNGKEYKCKVSNEALPYPEEKTISKAKGQPREPQVYTLPPSRDELTKNQVSLTCLVKGFYPSDIAVEWESNGQPENNYKTTPPVLDSDGSFFLYSKLTVDKSRWQQGNVFSCSVMHEALHNHYTQKSLSLSPGK
B11: F241Y/F243Y/V262T/V264T alemtuzumab (antibody)
heavy: DKTHTCPPCPAPELLGGPSVYLYPPKPKDTLMISRTPEVTCTVTDVSHEDPEVKFNWYVDGVEVHNAKTKPREEQYNSTYRVVSVLTVLHQDWLNGKEYKCKVSNKALPAPIEKTISKAKGQPREPQVYTLPPSRDELTKNQVSLTCLVKGFYPSDIAVEWESNGQPENNYKTTPPVLDSDGSFFLYSKLTVDKSRWQQGNVFSCSVMHEALHNHYTQKSLSLSPGK
B12: F241L/F243L/V262I/V264I alemtuzumab (antibody)
heavy: DKTHTCPPCPAPELLGGPSVLLLPPKPKDTLMISRTPEVTCIVIDVSHEDPEVKFNWYVDGVEVHNAKTKPREEQYNSTYRVVSVLTVLHQDWLNGKEYKCKVSNKALPAPIEKTISKAKGQPREPQVYTLPPSRDELTKNQVSLTCLVKGFYPSDIAVEWESNGQPENNYKTTPPVLDSDGSFFLYSKLTVDKSRWQQGNVFSCSVMHEALHNHYTQKSLSLSPGK
B13: S239D/D265Y/N297D/I332E alemtuzumab (antibody)
heavy: DKTHTCPPCPAPELLGGPDVFLFPPKPKDTLMISRTPEVTCVVVYVSHEDPEVKFNWYVDGVEVHNAKTKPREEQYDSTYRVVSVLTVLHQDWLNGKEYKCKVSNKALPAPEEKTISKAKGQPREPQVYTLPPSRDELTKNQVSLTCLVKGFYPSDIAVEWESNGQPENNYKTTPPVLDSDGSFFLYSKLTVDKSRWQQGNVFSCSVMHEALHNHYTQKSLSLSPGK
B14: S239D/I332E/A330I trastuzumab (antibody)
heavy: DKTHTCPPCPAPELLGGPDVFLFPPKPKDTLMISRTPEVTCVVVDVSHEDPEVKFNWYVDGVEVHNAKTKPREEQYNSTYRVVSVLTVLHQDWLNGKEYKCKVSNKALPIPEEKTISKAKGQPREPQVYTLPPSRDELTKNQVSLTCLVKGFYPSDIAVEWESNGQPENNYKTTPPVLDSDGSFFLYSKLTVDKSRWQQGNVFSCSVMHEALHNHYTQKSLSLSPGK

For the first assay, the target named is human F158 FcγRIIIa as used in SPR (human, UniProt P08637 17-208). Put plainly: SPR. (In general: In SPR one partner is held on a chip, and binding of the other changes the refractive index at the surface.)
human F158 FcγRIIIa as used in SPR, sequence (P08637 17-208): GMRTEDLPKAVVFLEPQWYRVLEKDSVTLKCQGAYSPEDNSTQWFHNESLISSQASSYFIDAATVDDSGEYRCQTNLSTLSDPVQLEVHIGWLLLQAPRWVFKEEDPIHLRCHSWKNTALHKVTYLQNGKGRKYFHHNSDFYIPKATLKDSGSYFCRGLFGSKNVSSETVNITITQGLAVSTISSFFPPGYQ
B1 showed a Kd of 156 nM.

The target of a further assay is His-tagged V158 FcγRIIIa (human, UniProt P08637 17-208). Put plainly: SPR, receptor on chip.
His-tagged V158 FcγRIIIa, sequence (P08637 17-208 F176V): as the sequence (P08637 17-208) above, with F160V counted along it
Molecule B1 yielded a Kd of 39 nM.

The target in another assay is extracellular region of human V158 FcγRIIIa fused with glutathione S-Transferase (GST) (human, UniProt P08637 17-208). Put plainly: AlphaScreen competition.
extracellular region of human V158 FcγRIIIa fused with glutathione S-Transferase (GST), sequence (P08637 17-208 F176V): as the sequence (P08637 17-208) above, with F160V counted along it
B2: the “FcγRIIIa Fold” value turned out to be 0.1 fold vs WT.

For the molecule B3, the “FcγRIIIa Fold” value turned out to be 7.04 fold vs WT.

In the case of B4, the “FcγRIIIa Fold” value is 1.87 fold vs WT.

In the case of B5, the “FcγRIIIa Fold” value worked out at 22.4 fold vs WT.

Turning to B6, the “FcγRIIIa Fold” value stood at 0.04 fold vs WT.

Regarding B7, the “FcγRIIIa Fold” value was 0.02 fold vs WT.

As to B8, the “FcγRIIIa Fold” value is 28 fold vs WT.

For the molecule B9, the “FcγRIIIa Fold” value came out at 17.7 fold vs WT.

In the case of B10, the “FcγRIIIa Fold” value was found to be 64.1 fold vs WT.

For the molecule B11, the “FcγRIIIa Fold” value was found to be 0.05 fold vs WT.

Take B12: the “FcγRIIIa Fold” value worked out at 0.09 fold vs WT.

On to B13, for which the “FcγRIIIa Fold” value stood at 0.02 fold vs WT.

Take B14: the “FcγRIIIa Fold” value worked out at 59.1 fold vs WT.

A word on the Kd: it is the free concentration of one partner at which half of the binding sites on the other are occupied at equilibrium, for simple one-to-one binding. Read a low Kd as higher affinity.

The values above are taken from patent publication US20070224189A1 (published 2007).
